Reference: patent publication US20240343799A1 (Innovent, published 2024)
Changes are numbered by the printed parent chain. Numbers in names are those of the source.

T1: CD79b on the surface of B-cell non-Hodgkin's lymphoma cells (human, UniProt P40259 29-229)
T1 construct: whole, on cells; Endogenous CD79b of the cell lines; on cells it stands in the B cell receptor complex with CD79a; also called CD79b on Ramos cells; CD79b on BJAB cells
T1 sequence (looked up): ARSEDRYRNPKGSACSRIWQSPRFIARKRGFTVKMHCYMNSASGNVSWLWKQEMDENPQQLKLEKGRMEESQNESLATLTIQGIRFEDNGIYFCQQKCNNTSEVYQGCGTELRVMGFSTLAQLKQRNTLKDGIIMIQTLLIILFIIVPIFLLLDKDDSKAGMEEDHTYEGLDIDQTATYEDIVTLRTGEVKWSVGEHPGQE

T2: human CD79b-his (Sino biological) (human, UniProt P40259 29-159)
T2 construct: Amine-coupled to the Biacore chip (about 50 RU); not shown: His tag
T2 sequence (looked up): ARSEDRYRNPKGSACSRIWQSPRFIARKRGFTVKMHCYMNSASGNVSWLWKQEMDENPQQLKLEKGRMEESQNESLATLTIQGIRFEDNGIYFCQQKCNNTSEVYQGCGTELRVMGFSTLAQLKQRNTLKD

T3: monkey CD3E & CD3G-biotin (Sino biological) (cynomolgus monkey, UniProt Q95LI5 22-117; Q95LI7 23-113, limits assumed)
T3 construct: also called Cyno CD3E&G; monkey CD3E&G
T3 sequence (looked up) 1: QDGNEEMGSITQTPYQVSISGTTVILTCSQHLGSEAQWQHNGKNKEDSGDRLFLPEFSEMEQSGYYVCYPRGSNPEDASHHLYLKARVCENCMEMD
T3 sequence (looked up) 2: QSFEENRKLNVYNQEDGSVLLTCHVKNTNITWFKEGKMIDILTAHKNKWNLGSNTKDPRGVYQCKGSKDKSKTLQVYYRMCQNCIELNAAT

B1: 38D9B3.11/sp34.87 (bispecific antibody, human IgG1, kappa, lambda, L234A L235A)
heavy 1: not shown
light 1: EIVLTQSPATLSLSPGERATLSCKASQSVDHDVDSYMDWYQQKPGQAPRLLIYSASNLESGIPARFSGSGSGTDFTLTISSLEPEDFAVYYCQQINEYPYTFGGGTKVEIKRTVAAPSVFIFPPSDEQLKSGTASVVCLLNNFYPREAKVQWKVDNALQSGNSQESVTEQDSKDSTYSLSSTLTLSKADYEKHKVYACEVTHQGLSSPVTKSFNRGEC
heavy 2: not shown
light 2: QAVVTQEPSLTVSPGGTVTLTCRSSTGAVTTSNYANWVQQKPGQAPRGLIGGTNKRAPGVPARFSGSLLGDKAALTLLGAQPEDEAEYYCALWYSNLWVFGQGTKLTVLGQPKAAPSVTLFPPSSEELQANKATLVCLISDFYPGAVTVAWKADSSPVKAGVETTTPSKQSNNKYAASSYLSLTPEQWKSHRSYSCQVTHEGSTVEKTVAPTECS
notes: 1+1 anti-CD79b x CD3 bispecific, IgG1 Fc with knob-in-hole and L234A/L235A; also called 38D9B3.11 x HzSP34.87
B2: 38D9B3.11/sp34.24 (bispecific antibody, human IgG1, kappa, lambda, L234A L235A)
heavy 1: not shown
light 1: B1 light 1
heavy 2: not shown
light 2: B1 light 2
notes: also called 38D9B3.11 x HzSP34.24
B3: 11G10.9.p1/sp34.87 (bispecific antibody, human IgG1, kappa, lambda, L234A L235A)
heavy 1: not shown
light 1: DIVMTQTPLSLSVTPGQPASISCKSSQSLLDSEGKTYLNWLLQKPGQSPQSLIYLVSKLDSGVPDRFSGSGSGTDFTLKISRVEAEDVGVYYCWQGTHFPLTFGGGTKVEIKRTVAAPSVFIFPPSDEQLKSGTASVVCLLNNFYPREAKVQWKVDNALQSGNSQESVTEQDSKDSTYSLSSTLTLSKADYEKHKVYACEVTHQGLSSPVTKSFNRGEC
heavy 2: not shown
light 2: B1 light 2
notes: also called 11G10.9.p1 x HzSP34.87
B4: 11G10.9.p1/sp34.24 (bispecific antibody, human IgG1, kappa, lambda, L234A L235A)
heavy 1: not shown
light 1: B3 light 1
heavy 2: not shown
light 2: B1 light 2
notes: also called 11G10.9.p1 x HzSP34.24
B5: 34F1.14/sp34.87 (bispecific antibody, human IgG1, kappa, lambda, L234A L235A)
heavy 1: not shown
light 1: DVVMTQSPLSLPVTLGQPASISCKSSLSLLDSEGKTYLNWFQQRPGQSPRPLISLVSKLDSGVPDRFSGSGSGTDFTLKISRVEAEDVGVYYCWQGTHFPLTFGGGTKVEIKRTVAAPSVFIFPPSDEQLKSGTASVVCLLNNFYPREAKVQWKVDNALQSGNSQESVTEQDSKDSTYSLSSTLTLSKADYEKHKVYACEVTHQGLSSPVTKSFNRGEC
heavy 2: not shown
light 2: B1 light 2
notes: also called 34F1.14 x HzSP34.87
B6: 34F1.14/sp34.24 (bispecific antibody, human IgG1, kappa, lambda, L234A L235A)
heavy 1: not shown
light 1: B5 light 1
heavy 2: not shown
light 2: B1 light 2
notes: also called 34F1.14 x HzSP34.24
B7: CD79b.A7v14b/38E4v1 (bispecific antibody, human IgG1, kappa, L234A L235A)
heavy 1: not shown
light 1: B3 light 1 with S12P, E33D, L101Q, G105Q
heavy 2: not shown
light 2: not shown
notes: also called CD79b.A7v14b x 38E4v1

What was measured:
[1] = target: T1, CD79b on the surface of B-cell …; assay: flow cytometry on BJAB cells, goat anti-human IgG PE
Procedure: (§1) The binding ability of the CD79b/CD3 bispecific antibodies for CD79b-positive B-cell non-Hodgkin's lymphoma cell lines was detected by flow cytometry.
(§2) BJAB (AddexBio, USA, Cat #C0003016) and WSU-DLCL2 (Nanjing Kebai Biotechnology Co., Ltd., Cat #CBP60273) were cultured and passaged according to the conventional procedures. Cells were counted after centrifugation and resuspension, adjusted to a density of 4×10⁶ cells/mL, poured into a loading tank, and seeded to a 96-well plate at 50 μL/well using a multichannel pipettor. 50 μL of the antibody sample diluted in gradient was added to the 50 μL of cells in each well, and the mixture was then incubated in an incubator at 5% CO₂ and 37° C. for 30 min. The mixture was centrifuged at 400 g for 5 min, then 200 μL of PBS was added, and the resulting mixture was centrifuged at 400 g for 5 min. This procedure was repeated 3 times. Goat anti-human IgG PE (1:200) was added, and the mixture was incubated for 30 min in the dark at room temperature. The mixture was washed with 200 μL of PBS twice, centrifuged, and then resuspended in 100 μL of PBS, and the values were read using a flow cytometer. The values were fitted to obtain a curve and EC₅₀ values were calculated.

[2] = target: T4, human CD3E & CD3G-biotin (Sino biological) (human, UniProt P07766 23-126; P09693 23-116, limits assumed); assay: SPR (Biacore T200), biotinylated CD3E&CD3G on streptavidin chip, antibody injected
T4 construct: also called Human CD3E&G
T4 sequence (P07766 23-126 limits assumed, chain 1 of 2): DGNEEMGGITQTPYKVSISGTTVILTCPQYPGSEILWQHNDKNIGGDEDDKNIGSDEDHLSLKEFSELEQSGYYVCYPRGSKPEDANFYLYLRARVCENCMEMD
T4 sequence (P09693 23-116 limits assumed, chain 2 of 2): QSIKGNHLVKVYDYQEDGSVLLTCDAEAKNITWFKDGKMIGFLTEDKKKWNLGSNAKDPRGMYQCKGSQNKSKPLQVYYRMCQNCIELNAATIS
Procedure: (§3) The binding kinetics of exemplary anti-CD79b/CD3 antibodies of the present invention for human CD79b, human CD3, and cynomolgus monkey CD3 were determined using surface plasmon resonance (Biacore T200). (1) Affinity assay of antibodies for human CD79b-his (Sino biological): 50 mM N-hydroxysuccinimide (NHS) and 200 mM 1-ethyl-3-(3-dimethylaminopropyl) carbodiimide hydrochloride (EDC) were freshly mixed and activated for 420 s at a flow rate of 10 μL/min. Human CD79b-His antigen was then diluted in 10 mM Acetate (pH 5.0), and after dilution to a concentration of 1 μg/mL, the antigen solution was subjected to coupling and the value was approximately 50 RU. Then 1 M ethanolamine was injected at a flow rate of 10 μL/min for 420 s to block the remaining activation sites. The buffer used in the experiment was HBS-EP+ solution at pH 7.4, and under a high performance mode, the antibodies obtained after 2-fold gradient dilution (0-80 nM) were each injected, according to an ascending order based on concentrations, into the channels 1, 2, 3 and 4 of the chip at a flow rate of 30 μL/min, wherein one cycle was used for determination of one concentration, the binding time was 180 s, and the dissociation time was 600 s. (2) Affinity assay of antibodies for human CD3E & CD3G-biotin (Sino biological) and monkey CD3E & CD3G-biotin (Sino biological): 50 mM NHS and 200 mM EDC were freshly mixed and activated for 420 s at a flow rate of 10 μL/min. Streptavidin (Thermo Fisher scientific) protein was then diluted in 10 mM Acetate (pH 4.5) and after dilution to a concentration of 10 μg/mL, the antigen solution was subjected to coupling and the value was approximately 3000 RU. Then 1 M ethanolamine was injected at a flow rate of 10 μL/min for 420 s to block the remaining activation sites. Human CD3E & CD3G-biotin and monkey CD3E & CD3G-biotin proteins were each immobilized on the chip channels coupled with Streptavidin protein. The antibodies (0-16 nM or 0-40 nM or 0-200 nM) obtained after 2-fold gradient dilution were each injected, according to an ascending order based on concentrations, into the channels 1, 2, 3 and 4 of the chip at a flow rate of 30 μL/min, wherein one cycle was used for determination of one concentration, the binding time was 180 s, and the dissociation time was 300 s.

[3] = target: T1, CD79b on the surface of B-cell …; assay: flow cytometry on WSU-DLCL2 cells, goat anti-human IgG PE
Procedure: as §1, §2

[4] = target: T2, human CD79b-his (Sino biological); assay: SPR (Biacore T200), CD79b-His coupled to chip, antibody injected
Procedure: as §3

[5] = target: T3, monkey CD3E & CD3G-biotin (Sino …); assay: SPR (Biacore T200), biotinylated monkey CD3E&CD3G on streptavidin chip, antibody injected
Procedure: as §3

Binder	EC50 (read off the curve) [1]	Kd [2]	koff [2]	kon [2]	EC50 (read off the curve) [3]	Kd [4]	koff [4]	kon [4]	Kd [5]	koff [5]	kon [5]
B1	~5 nM	119 nM	0.0368 s⁻¹	310000 M⁻¹ s⁻¹	~9 nM	1.66 nM	0.00031 s⁻¹	187000 M⁻¹ s⁻¹	253 nM	0.0275 s⁻¹	109000 M⁻¹ s⁻¹
B2	~5 nM	6.19 nM	0.00565 s⁻¹	912000 M⁻¹ s⁻¹	~10 nM	0.787 nM	0.000268 s⁻¹	341000 M⁻¹ s⁻¹	10.9 nM	0.00656 s⁻¹	603000 M⁻¹ s⁻¹
B3	~20 nM	107 nM	0.0331 s⁻¹	308000 M⁻¹ s⁻¹	~30 nM	4.5 nM	0.00208 s⁻¹	461000 M⁻¹ s⁻¹	202 nM	0.0336 s⁻¹	167000 M⁻¹ s⁻¹
B4	~20 nM	6.25 nM	0.00531 s⁻¹	851000 M⁻¹ s⁻¹	~30 nM	2.16 nM	0.00176 s⁻¹	815000 M⁻¹ s⁻¹	10.7 nM	0.0061 s⁻¹	570000 M⁻¹ s⁻¹
B5	–	92 nM	0.0315 s⁻¹	342000 M⁻¹ s⁻¹	–	7.03 nM	0.00207 s⁻¹	295000 M⁻¹ s⁻¹	180 nM	0.032 s⁻¹	178000 M⁻¹ s⁻¹
B6	~60 nM	4.99 nM	0.00512 s⁻¹	1.03e+06 M⁻¹ s⁻¹	–	3.1 nM	0.00161 s⁻¹	519000 M⁻¹ s⁻¹	8.75 nM	0.00593 s⁻¹	678000 M⁻¹ s⁻¹
B7	~10 nM	1 nM	0.00296 s⁻¹	2.96e+06 M⁻¹ s⁻¹	~20 nM	8.66 nM	0.00701 s⁻¹	809000 M⁻¹ s⁻¹	1.52 nM	0.00285 s⁻¹	1.88e+06 M⁻¹ s⁻¹
